Article PMC11952658, “The zinc finger of DNA Ligase 3α binds to nucleosomes via an arginine anchor” (Research Square, 2025)

Target: Cy3-labeled human histone nucleosome core particle reconstituted on the Widom 601 sequence (human, Cy3-maleimide on K119C)
Experiment: single-molecule fluorescence imaging on a tethered nucleosome (SMADNE, LUMICKS C-trap); Cy3-labeled undamaged 601 NCP ligated into 6 kb biotinylated DNA handles and tethered between optically trapped streptavidin beads, 4–5 pN tension; tagged proteins from nuclear extract; lifetimes from CRTD; KD from koff, apparent kon and protein concentration
Details: one partner purified

B1: Halo 635-ZnF-BRCT LIG3α (domain or fragment)
chain: MAEQRFCVDYAKRGTAGCKKCKEKIVKGVCRIGKVVPNPFSESGGDMKEWYHIKCMFEKLERARATTKKIEDLTELEGWEELEDNEKEQITQHIADLSSKAAGTPKKKAVVQAKLTTTGQVTSPVKGASFVTSTNPRKFSGFSAKPNNSGEAPSSPTPKRSLSSSKCDPEKADFTVVAGDEGSSTTGGSSEENKGPSGSAVSRKAPSKPSASTKKAEGKLSNSNSKDGNMQTAKPSAMKVGEKLATKSSPVKVGEKRKAADETLCQTKVLLDIFTGVRLYLPPSTPDFSRLRRYFVAFDGDLVQEFDMTSATHVLGSRDKNPAAQQVSPEWIWACIRKRRLVAPC
modifications: Janelia Fluor 635 HaloTag ligand on the HaloTag
B1 gave a Kd of 1.1 ± 0.3 nM.
